Experimental data taken from patent US20040086947A1.
Values belong to the binder of their own block, whether it stands above or below them. No end group written: not given here.

Columns and labels:
[1] = substrate: FPB antiserum (rabbit polyclonal antiserum to human fibrinopeptide B, R4097, bleed I3); experiment: competitive ELISA; synthetic FPB in solution against FPB antiserum binding to FPB-coated wells
[2] = substrate: FPB antiserum (rabbit polyclonal antiserum to human fibrinopeptide B, R4097, bleed I3); experiment: competitive ELISA; des-arg FPB in solution against FPB antiserum binding to FPB-coated wells
[3] = substrate: FPB antiserum (rabbit polyclonal antiserum to human fibrinopeptide B, R4097, bleed I3); experiment: competitive ELISA; reference synthetic FPB

IC50 [1]: 6.7 nM
B1: synthetic human fibrinopeptide B (FPB) (peptide)
peptide: QGVNDNEEGFFSAR
modifications: also: N-terminal Gln or pyroglutamic acid not given here

IC50 [2]: 8.9 nM
cross-reactivity (IC50 of FPB divided by IC50 of des-arg FPB times 100) [3]: 75%
B2: synthetic des-arginine fibrinopeptide B (des-arg FPB) (peptide)
peptide: QGVNDNEEGFFSA
modifications: also: N-terminal Gln or pyroglutamic acid not given here
